This note sets out measurements from patent US20240317847A1 (Bayer, published 2024).

Assay [1] has as its target T1, human IL-11 (human, UniProt P20809 22-199).
T1 sequence: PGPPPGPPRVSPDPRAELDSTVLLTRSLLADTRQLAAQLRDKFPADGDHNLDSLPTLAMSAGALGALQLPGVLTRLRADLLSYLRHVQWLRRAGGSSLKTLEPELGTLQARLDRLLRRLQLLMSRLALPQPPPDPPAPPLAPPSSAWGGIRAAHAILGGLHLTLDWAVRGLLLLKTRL
In words: cell-based or functional assay.

Assay [2] deals with T2, murine IL-11 (mouse, UniProt P47873 22-199).
T2 sequence: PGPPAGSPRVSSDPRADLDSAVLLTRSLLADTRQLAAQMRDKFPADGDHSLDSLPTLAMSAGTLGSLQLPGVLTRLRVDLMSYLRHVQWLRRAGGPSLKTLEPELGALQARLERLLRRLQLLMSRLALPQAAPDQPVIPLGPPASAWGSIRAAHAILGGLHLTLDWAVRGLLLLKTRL
In words: cell-based or functional assay.

The target in assay [3] is T1, human IL-11. In words: SPR, antibody captured, IL-11 as analyte. The protocol:
(§1) Antibodies were captured via anti-mouse Fc IgGs (“Mouse antibody capture kit, Order No. BR100383, Cytiva) covalently amine coupled to a Series S CM5 sensor chip (Cytiva). The amine coupling was carried out according to the manufacturer's instructions using 1-ethyl-3-(3-dimethylaminopropyl) carbodiimide hydrochloride (EDC), N-hydroxysuccinimide (NHS) and ethanolamine HCl, pH 8.5 (“Amine Coupling Kit” BR-1000-50, Cytiva.). Human IL-11 (Invigate, e.g., lot #C121021-19), and murine IL-11 (Invigate, e.g., lot #C210819-09) were used as analytes. […] Based on that experiment an IL-11 concentration range was chosen to optimally determine kinetics and affinity of anti-IL-11 antibodies in multicycle kinetics mode. The sensor surface was regenerated with glycine pH 1.7 after each antigen injection. Obtained sensorgrams were double referenced (subtraction of reference flow cell signal and buffer injection) and were fitted to a 1:1 Langmuir binding model to derive kinetic data using the Biacore T200 Evaluation software or the Biacore Insight software.
(§2) For the 2nd round of germlining, single reversions were then combined on DNA level, expressed and purified as described in Example 15, and tested by SPR as described in Example 16.

For assay [4], the target named is T2, murine IL-11. In words: SPR, antibody captured, IL-11 as analyte. As for the experimental part:
as §1, §2
For orientation: Surface plasmon resonance follows binding to a sensor surface in real time, without labels.

B1: TPP-21150 (antibody, V domains shown)
VH: EVQLLESGGGLVQPGGSLRLSCAASGFTFSSYGMHWVRQAPGKGLEWVSVISYDGSYKYYADSVKGRFTISRDNSKNTLYLQMNSLRAEDTAVYYCAAGVPDYWGQGTLVTVSS
VL: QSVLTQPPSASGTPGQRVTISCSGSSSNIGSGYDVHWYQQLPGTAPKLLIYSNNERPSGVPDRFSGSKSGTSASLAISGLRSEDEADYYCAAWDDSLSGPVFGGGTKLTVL
The term Kd denotes a measure of binding affinity in units of concentration. A lower Kd goes with higher affinity. Consider B1, for which the results for the “Efficacy (%), RGA” value in the assay with human IL-11 [1] and with murine IL-11 [2] were 46.9% and 92.2%, respectively. Also, the figures for the “IC50, RGA” value in the assay with human IL-11 [1] and with murine IL-11 [2] were 12 nM and 1.6 nM, respectively. Also, the Kd with human IL-11 [3] came to 5.6 nM; in the assay with murine IL-11 [4] it was 1.4 nM.

B2: TPP-27159 (antibody, human IgG1, lambda, V domains shown)
VH: EVQLLESGGGLVQPGGSLRLSCAASGFTFSSYGMHWVRQAPGKGLEWVAVISYDGSYKYYADSVKGRFTISRDNSKNTLYLQMNSLRAEDTAVYYCAAGVPDYWGQGTLVTVSS
VL: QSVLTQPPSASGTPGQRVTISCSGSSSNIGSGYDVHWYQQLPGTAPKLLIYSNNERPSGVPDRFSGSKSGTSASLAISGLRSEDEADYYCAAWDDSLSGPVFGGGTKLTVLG
notes: hIgG1, Lambda
As for B2, the “Efficacy (%), RGA” value in the assay with human IL-11 [1] came out at 43.2%; in the assay with murine IL-11 [2], 82.4%. For the same molecule, the “IC50, RGA” value came to 19 nM with human IL-11 [1] and 1.9 nM in the assay with murine IL-11 [2]. For the same molecule, the figures for the dissociation constant Kd with human IL-11 [3] and with murine IL-11 [4] were 5.4 nM and 1.1 nM, respectively.

B3: TPP-27156 (antibody, V domains shown)
VH: EVQLLESGGGLVQPGGSLRLSCAASGFTFSSYGMHWVRQAPGKGLEWVAVISYDGSYKYYADSVKGRFTISRDNSKNTLYLQMNSLRAEDTAVYYCAAGVPDYWGQGTLVTVSS
VL: QSVLTQPPSASGTPGQRVTISCTGSSSNIGAGYDVHWYQQLPGTAPKLLIYSNNERPSGVPDRFSGSKSGTSASLAISGLRSEDEADYYCAAWDDSLNGPVFGGGTKLTVL
Turning to B3, the results for the “Efficacy (%), RGA” value in the assay with human IL-11 [1] and in the assay with murine IL-11 [2] were 50.4% and 90.6%, respectively. Further, the entries for the “IC50, RGA” value in the assay with human IL-11 [1] and in the assay with murine IL-11 [2] were 15 nM and 1.2 nM, respectively. Further, the dissociation constant Kd with human IL-11 [3] was found to be 6.6 nM; with murine IL-11 [4] it was 0.45 nM.

B4: TPP-27157 (antibody, V domains shown)
VH: EVQLLESGGGLVQPGGSLRLSCAASGFTFSSYGMHWVRQAPGKGLEWVAVISYDGSYKYYADSVKGRFTISRDNSKNTLYLQMNSLRAEDTAVYYCAAGVPDYWGQGTLVTVSS
VL: QSVLTQPPSASGTPGQRVTISCTGSSSNIGAGYDVHWYQQLPGTAPKLLIYSNNERPSGVPDRFSGSKSGTSASLAISGLRSEDEADYYCAAWDDSLSGPVFGGGTKLTVL
In the case of B4, the entries for the “Efficacy (%), RGA” value with human IL-11 [1] and with murine IL-11 [2] were 51.2% and 86.4%, respectively. The entries for the “IC50, RGA” value with human IL-11 [1] and in the assay with murine IL-11 [2] were 13 nM and 1.4 nM, respectively. Further, the Kd came out at 5.1 nM with human IL-11 [3] and 1.1 nM in the assay with murine IL-11 [4].

B5: TPP-27158 (antibody, V domains shown)
VH: EVQLLESGGGLVQPGGSLRLSCAASGFTFSSYGMHWVRQAPGKGLEWVAVISYDGSYKYYADSVKGRFTISRDNSKNTLYLQMNSLRAEDTAVYYCAAGVPDYWGQGTLVTVSS
VL: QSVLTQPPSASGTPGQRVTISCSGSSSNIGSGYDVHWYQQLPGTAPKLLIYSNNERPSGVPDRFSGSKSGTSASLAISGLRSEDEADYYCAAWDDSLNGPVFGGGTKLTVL
As for B5, the “Efficacy (%), RGA” value is 55.8% with human IL-11 [1] and 89.9% with murine IL-11 [2]. Besides, the entries for the “IC50, RGA” value with human IL-11 [1] and with murine IL-11 [2] were 20 nM and 1.4 nM, respectively. Also, the dissociation constant Kd stood at 5.9 nM in the assay with human IL-11 [3] and 0.4 nM with murine IL-11 [4].

B6: TPP-27163 (antibody, V domains shown)
VH: EVQLLESGGGLVQPGGSLRLSCAASGFTFSSYGMHWVRQAPGKGLEWVAVISYDGSYKYYADSVKGRFTISRDNSKNTLYLQMNSLRAEDTAVYYCAAGVPDYWGQGTLVTVSS
VL: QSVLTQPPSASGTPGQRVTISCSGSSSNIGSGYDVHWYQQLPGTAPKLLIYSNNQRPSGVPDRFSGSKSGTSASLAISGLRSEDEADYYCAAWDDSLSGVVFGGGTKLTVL
Turning to B6, the results for the “Efficacy (%), RGA” value with human IL-11 [1] and in the assay with murine IL-11 [2] were 2.9% and 52.3%, respectively. Also, the “IC50, RGA” value with murine IL-11 [2] came out at 52 nM. Besides, the Kd with human IL-11 [3] is 12 nM; with murine IL-11 [4] it was 28 nM.

B7: TPP-21153 (antibody, V domains shown)
VH: EVQLLESGGGLVQPGGSLRLSCAASGFTFSSYGMHWVRQAPGKGLEWVSVISYDGSYKYYADSVKGRFTISRDNSKNTLYLQMNSLRAEDTAVYYCAAGVPDYWGQGTLVTVSS
VL: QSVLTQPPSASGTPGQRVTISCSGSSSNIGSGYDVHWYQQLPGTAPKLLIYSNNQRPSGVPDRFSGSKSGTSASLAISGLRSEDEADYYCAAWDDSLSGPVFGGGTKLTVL
As for B7, the “Efficacy (%), RGA” value with human IL-11 [1] stood at 34%; in the assay with murine IL-11 [2], 81.2%. The “IC50, RGA” value came to 26 nM with human IL-11 [1] and 3.4 nM with murine IL-11 [2]. Also, the figures for the dissociation constant Kd with human IL-11 [3] and with murine IL-11 [4] were 10 nM and 3.6 nM, respectively.

B8: TPP-21158 (antibody, V domains shown)
VH: EVQLLESGGGLVQPGGSLRLSCAASGFTFSSYGMHWVRQAPGKGLEWVAVISYDGSYKYYADSVKGRFTISRDNSKNTLYLQMNSLRAEDTAVYYCARGVPDYWGQGTLVTVSS
VL: QSVLTQPPSASGTPGQRVTISCTGSSSNIGAGYDVHWYQQLPGTAPKLLIYSNNERPSGVPDRFSGSKSGTSASLAISGLRSEDEADYYCAAWDDSLNGPVFGGGTKLTVL
For B8, the “Efficacy (%), RGA” value with human IL-11 [1] came to 19.4%; with murine IL-11 [2], 73.2%. Also, in the assay with murine IL-11 [2], the “IC50, RGA” value was found to be 2.4 nM. Besides, the Kd worked out at 47 nM with human IL-11 [3] and 13 nM with murine IL-11 [4].

B9: TPP-27154 (antibody, V domains shown)
VH: EVQLLESGGGLVQPGGSLRLSCAASGFTFSSYGMHWVRQAPGKGLEWVSVISYDGSYKYYADSVKGRFTISRDNSKNTLYLQMNSLRAEDTAVYYCAAGVPDYWGQGTLVTVSS
VL: QSVLTQPPSASGTPGQRVTISCTGSSSNIGAGYDVHWYQQLPGTAPKLLIYSNNERPSGVPDRFSGSKSGTSASLAISGLRSEDEADYYCAAWDDSLSGPVFGGGTKLTVL
Turning to B9, the results for the “Efficacy (%), RGA” value with human IL-11 [1] and with murine IL-11 [2] were 58.7% and 92.9%, respectively. Also, the “IC50, RGA” value amounted to 24 nM with human IL-11 [1] and 1.8 nM with murine IL-11 [2]. Moreover, the Kd with human IL-11 [3] was 5.4 nM; with murine IL-11 [4], 1.3 nM.

B10: TPP-21157 (antibody, V domains shown)
VH: EVQLLESGGGLVQPGGSLRLSCAASGFTFSSYGMHWVRQAPGKGLEWVSVISYDGSYKYYADSVKGRFTISRDNSKNTLYLQMNSLRAEDTAVYYCAAGVPDYWGQGTLVTVSS
VL: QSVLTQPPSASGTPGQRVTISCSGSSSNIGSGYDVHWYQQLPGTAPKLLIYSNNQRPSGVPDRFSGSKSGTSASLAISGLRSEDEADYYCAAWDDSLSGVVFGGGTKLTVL
B10: the “Efficacy (%), RGA” value with human IL-11 [1] came to 13.4%; with murine IL-11 [2], 59.2%. The “IC50, RGA” value with murine IL-11 [2] turned out to be 44 nM. For the same molecule, the Kd came to 13 nM with human IL-11 [3] and 73 nM in the assay with murine IL-11 [4].

B11: TPP-27155 (antibody, V domains shown)
VH: EVQLLESGGGLVQPGGSLRLSCAASGFTFSSYGMHWVRQAPGKGLEWVSVISYDGSYKYYADSVKGRFTISRDNSKNTLYLQMNSLRAEDTAVYYCAAGVPDYWGQGTLVTVSS
VL: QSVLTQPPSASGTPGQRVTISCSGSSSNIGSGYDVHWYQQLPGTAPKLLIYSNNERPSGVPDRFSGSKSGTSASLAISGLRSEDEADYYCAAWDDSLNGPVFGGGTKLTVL
In the case of B11, the “Efficacy (%), RGA” value with human IL-11 [1] worked out at 56.5%; with murine IL-11 [2], 94.3%. Also, the “IC50, RGA” value with human IL-11 [1] stood at 20 nM; with murine IL-11 [2], 1.1 nM. Further, the dissociation constant (Kd) in the assay with human IL-11 [3] was determined as 5.8 nM; with murine IL-11 [4], 0.65 nM.

B12: TPP-27160 (antibody, V domains shown)
VH: EVQLLESGGGLVQPGGSLRLSCAASGFTFSSYGMHWVRQAPGKGLEWVAVISYDGSYKYYADSVKGRFTISRDNSKNTLYLQMNSLRAEDTAVYYCAAGVPDYWGQGTLVTVSS
VL: QSVLTQPPSASGTPGQRVTISCSGSSSNIGSGYDVHWYQQLPGTAPKLLIYDNNERPSGVPDRFSGSKSGTSASLAISGLRSEDEADYYCAAWDDSLSGPVFGGGTKLTVL
Consider B12, for which the entries for the “Efficacy (%), RGA” value with human IL-11 [1] and with murine IL-11 [2] were -2.8% and 63.8%, respectively. In addition, the “IC50, RGA” value in the assay with murine IL-11 [2] was determined as 10 nM. Further, the dissociation constant (Kd) with human IL-11 [3] came out at 180 nM; in the assay with murine IL-11 [4], 56 nM.

B13: TPP-27162 (antibody, V domains shown)
VH: EVQLLESGGGLVQPGGSLRLSCAASGFTFSSYGMHWVRQAPGKGLEWVAVISYDGSYKYYADSVKGRFTISRDNSKNTLYLQMNSLRAEDTAVYYCAAGVPDYWGQGTLVTVSS
VL: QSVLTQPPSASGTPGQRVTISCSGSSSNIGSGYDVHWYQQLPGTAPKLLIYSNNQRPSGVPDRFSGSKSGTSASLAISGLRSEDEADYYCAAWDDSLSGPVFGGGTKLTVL
B13: the figures for the “Efficacy (%), RGA” value in the assay with human IL-11 [1] and with murine IL-11 [2] were 36% and 77.6%, respectively. Moreover, the “IC50, RGA” value turned out to be 91 nM with human IL-11 [1] and 3.3 nM with murine IL-11 [2]. For the same molecule, the values for the dissociation constant Kd in the assay with human IL-11 [3] and with murine IL-11 [4] were 7.4 nM and 3.2 nM, respectively.
